Laboratory results taken from publication PMC3930741.

Biological target: recombinant Tg-p43 (E. coli-derived) (Toxoplasma gondii)
Assay: cross-linking; purified E. coli-derived Tg-p43 at 1 mg/ml in PBS with 10% glycerol, 0.25% glutaraldehyde on ice, stopped with Tris-HCl pH 8; Coomassie-stained SDS-PAGE; beta-amylase and carbonic anhydrase for comparison

## recombinant Tg-p43 (E. coli-derived) (natural protein)
  stoichiometry N: 2
